# According to the RNAGym collection of RNA variant scans (doi:10.7554/elife.80360):
# B1: HDV Ribozyme (parent)
# chain: GGCCGGCAUGGUCCCAGCCUCCUCGCUGGCGCCGGCUGGGCAACAUUCCGAGGGGACCGUCCCCUCGGUAAUGGCGAAUGGGACCCA
# Variants of: B1
# Assay: self-cleavage, relative activity (ratio to wild type); higher = more cleavage; co-transcriptional
row,Variant,self-cleavage
1,GGGCGGCAUGGUCCCAGCCUCCUCGCUGGCGCCGGCUGGGCUACAUUCCGAGGGGACCGUCCCCUCGGUAAUGGCGAAUGGGACCCA,0.116
2,GGCCGGCAUGGUCCCAGCCUCCUCGCUGGCGCCGGCUGGGCAACAUUCCCAGGGGACCGUCCCCUCGGUAAUGGAGAAUGGGACCCA,0.242
3,GGCCGGCAUGGUCCCAGCCUCCUCGCUGGCGCCGGCUGGGAAACAUUCCGAAGGGACCGUCCCCUCGGUAAUGGCGAAUGGGACCCA,0.901
4,GGCCGGCAUGGUCCCAGCUUCCUCGCUGGCGCCGGCUGGGCAACAUUCCGAGGGGACUGUCCCCUCGGUAAUGGCGAAUGGGACCCA,0.126
5,GGACGGCAUGGUCCCAGCCUCCUCCCUGGCGCCGGCUGGGCAACAUUCCGAGGGGACCGUCCCCUCGGUAAUGGCGAAUGGGACCCA,0.0198
6,GGCCGGCAUGGUCCCAGGCUCCUCGCUGGCGCCGGCUGGGCAACAUUCUGAGGGGACCGUCCCCUCGGUAAUGGCGAAUGGGACCCA,0.138
7,GGCCGGCAUGGUCCCAGCCUGCUCGCUGGCGCCGCCUGGGCAACAUUCCGAGGGGACCGUCCCCUCGGUAAUGGCGAAUGGGACCCA,0.178
8,GGCCGGCAAUGUCCCAGCCUCCUCGCUGGCGCCGGCUGGGCAACAUUCCGAGGGGACCGUCCCCUCGGUAAUGGCGAAUGGGACCCA,0.855
9,GGCCGGCAUUGUCCCAGCCUCCUCGCUGGCGCCGGCGGGGCAACAUUCCGAGGGGACCGUCCCCUCGGUAAUGGCGAAUGGGACCCA,0.0978
10,GGCCGGCAUGGUCCCAGCCUCCUCGCUGACGCCGGCUGGGCAACAUUCCGAGGGGACCGUCCCCUCGGUAAUGGCGAAUGGGACCGA,0.138
11,GGCCGGCUUGGUCCCAGCCUCCUCGCUGGCGCCGGCUGGGCAACAUUCCGAGGGGACCGUCCCCUCGGUAAUGCCGAAUGGGACCCA,0.166
12,GGCCGGCAUGGUCCCAGCCUCCUCUCUGGCGCCGGCUGGGCAACAUUCCGAGGGGACCGUCCCCUCGGUGAUGGCGAAUGGGACCCA,0.0875
13,GGCUGGCAUGGUUCCAGCCUCCUCGCUGGCGCCGGCUGGGCAACAUUCCGAGGGGACCGUCCCCUCGGUAAUGGCGAAUGGGACCCA,0.516
14,GGCCGGCAUGGUCCCAGCCUCCUCGCUGGGGCCGGCUGGGCAACAUUCCGAAGGGACCGUCCCCUCGGUAAUGGCGAAUGGGACCCA,0.0287
15,GGCCGGCAUGGUCCCAGCCUCCUCGCUGGCGCCGGCUGGGCAACAUUCCGAGGGGACCGUCCGCUCGGUAAUGGCGAAUGGGACUCA,0.92
16,GGCCGGCAUGGUCCCAGCCUCCUCGCUUGUGCCGGCUGGGCAACAUUCCGAGGGGACCGUCCCCUCGGUAAUGGCGAAUGGGACCCA,0
17,GGCCGACAUGGUCCCAGCCUCCUCGCUGGCGCCGGCUGUGCAACAUUCCGAGGGGACCGUCCCCUCGGUAAUGGCGAAUGGGACCCA,0.317
18,GGCCGGCAUGGUCCCAGCCUCCUCGCUGGCGCCGGCUGGGCAACAUUCCGAGGGGACCGUCACCUCGGUAAUGGCGAUUGGGACCCA,0.185
19,GGCCGGAAUGGUCCCAGCCUCCUCGCUGGCGCCGGCUGGGCAACAUUACGAGGGGACCGUCCCCUCGGUAAUGGCGAAUGGGACCCA,0.604
20,GGCCGGCAUGGUCCCAGCCUCCUCGCUGACGCCGGCUGGGCAACAUUCCGAGGGGACCGUCCCCUCGUUAAUGGCGAAUGGGACCCA,0.0841
21,GGCCGGCAUGGUCCCAGCCUCCUCGCUGGCGCCGGCUGGGCAACAUUCCGAGGGGAGCGUCCCCUCGGUAAUGGCGAAGGGGACCCA,0.506
22,GGCCGCCAUGGUCCCAGCCUCCUCGCUGGCGCCGGCUGGGCAACAUUCCGAGGGGACCCUCCCCUCGGUAAUGGCGAAUGGGACCCA,0.277

row,Variant,self-cleavage
1,GGCCGGCAUGGUCCCAGCCUCCUCGCUGGCUCCGGCUGGGCAACACUCCGAGGGGACCGUCCCCUCGGUAAUGGCGAAUGGGACCCA,0.306
2,GGCCGGCAUGGUCCCAGCCUCGUCGCUGGCGCCGGCUGGGCAACAUUCCGAGGGGACCGUCCCCUCGGUAAUGGCGAAUGGUACCCA,0.0652
3,GGCCGGCAUGGUCCCAGCCUCCUCGCUGGCGCCGGCUGGGCAACAUUCCGAGGGGACAGUCCCCUCGGUAAUGGCGAAUGGGGCCCA,0.707
4,GGCCGGCAUGGUCCCAGCCUCCUCGCUGGCGCCGGCUGGGCAACAUUCUGAGGGGACCGUCCCUUCGGUAAUGGCGAAUGGGACCCA,1.05
5,GGCCGGCAGGGUCCCAGCCUCCUCGCUGGCGCCGGCUGGGCAACAUUCCGCGGGGACCGUCCCCUCGGUAAUGGCGAAUGGGACCCA,1.03
6,GGCCCGCAUGGUCCCAGCCUCCUCGCUGGCGCCGGCUGGGCAACAUUCCGAGGGGACCGUCCCCUCAGUAAUGGCGAAUGGGACCCA,0.353
7,GGCCCACAUGGUCCCAGCCUCCUCGCUGGCGCCGGCUGGGCAACAUUCCGAGGGGACCGUCCCCUCGGUAAUGGCGAAUGGGACCCA,0
8,GGCCGGCAUGGUCCCAGCCUCCUCGCUGGCGCCGGCUGGGAAAUAUUCCGAGGGGACCGUCCCCUCGGUAAUGGCGAAUGGGACCCA,0.692
9,GGCCGGCAUGGUCCCAGCCUCCUCGCUGGCGCCAGCUGGGCGACAUUCCGAGGGGACCGUCCCCUCGGUAAUGGCGAAUGGGACCCA,0.178
10,GGCCGGCAUGGUCCCAGCCUCCUCGCUAGCGCCGGCUGGACAACAUUCCGAGGGGACCGUCCCCUCGGUAAUGGCGAAUGGGACCCA,0.0615
11,GGCCGGCAUGGUCCCAGCCUCCUCGCUGGCGCCGGCUUGGCAACAUUCCGAGGGGACCGUCCCCUCGGUAAUGGCGAAUGGGCCCCA,0.0773
12,GGCCGCCAUGGUCCCAGCCUCCUCGCUGGCGCCGGCUGGGCAACAUUCCGAGGGGACCGUCCCCUCGGUAAUGGCGUAUGGGACCCA,0.145
13,GCCCGGCAUGGUCCCAGCCUCCUCGCUGGCGCCGGCUGGGCAACAUUCCGAAGGGACCGUCCCCUCGGUAAUGGCGAAUGGGACCCA,0.113
14,GGCCGGCAUGGUCCCAGCCUCCUCGCUGGCGCCGGCUGGGCAACAUUCCGAGUGGACCGUCCCCUCGGUAACGGCGAAUGGGACCCA,0.563
15,GGCCGGCAUGGUCCCAGCCUCCUCGCUGGCGCCGGCUCGGCAACAUUCCGAGGGGACCGUCCCCUCGGUAAUGGCGAUUGGGACCCA,0.0308
16,GGCCGGCAUGGUCCCAGCCUCCUCGCUGGCGCCGGCCGGGCAACAUUCCGAGGGGACCGUCCGCUCGGUAAUGGCGAAUGGGACCCA,0.965
17,GGCCGGCAUGGUCCCAGCCUCCUCGCUGGCGCCGGCUGGGCAACAUUCCCAGGGGACCGUCCCCUCGAUAAUGGCGAAUGGGACCCA,0.563
18,GGCCGGCAUGGUUCCAGCCUCCUCGCUGGCGCCGGCUGGGCAACAUUCCGAGGGGACAGUCCCCUCGGUAAUGGCGAAUGGGACCCA,0.665
19,GGCCGGCAUGGUCCCAGCCUCCUCGCUGGCGCCGGCUGGGCAACAUUCCGAGGGGACCGUUCCCUCGGUAGUGGCGAAUGGGACCCA,0.997
20,GGCCGGCAUGGUCCCAGCCUCCUCGCUGGCGCCGGCUGGGCAACAUUCCGAGGGGACGGUCGCCUCGGUAAUGGCGAAUGGGACCCA,0.639
21,GGCCGGCAUGGUCCCAGCCUUCUCGCUGGCGCCGGCUUGGCAACAUUCCGAGGGGACCGUCCCCUCGGUAAUGGCGAAUGGGACCCA,0.135
22,GGCCGGCAUGGUCCCAGCCUCCUCGCUGGCGCCGGCUGGACAACAUUCCGAGGGGACCGUCCCCUCGGUAAUGGCAAAUGGGACCCA,0.918

row,Variant,self-cleavage
1,GGCCAGCAUGGUCCCAGCCUCCUCGCUUGCGCCGGCUGGGCAACAUUCCGAGGGGACCGUCCCCUCGGUAAUGGCGAAUGGGACCCA,0
2,GGCCGGCAUGGUCCCAGCCUCCUCGCCGGCGCCGGCUGGGCAACAUUCCGAGGGGACCGUCCCCUCGGUAAUGGCGAAUGGGACCAA,0.875
3,GGCCGGCAUGGUCCCAGCCUCCUCGCUGGCGCCGGCUAGGCAACAUUCCGAGGGGGCCGUCCCCUCGGUAAUGGCGAAUGGGACCCA,0.108
4,GGCCGGCAUGGUCCCAGCCUCCACGCUGGCGCCGGCUGGGCAACAUUCCAAGGGGACCGUCCCCUCGGUAAUGGCGAAUGGGACCCA,1.06
5,GGCCGGCAUGGUCCCAGCCUCCUCGCUGGCGCCGGCUGUGCAACAAUCCGAGGGGACCGUCCCCUCGGUAAUGGCGAAUGGGACCCA,0.285
6,GGCCGGCAGGGUCCCAGCCUCCUCGCUGGCGCCGGCUGGGCAAUAUUCCGAGGGGACCGUCCCCUCGGUAAUGGCGAAUGGGACCCA,0.443
7,GGCCGGCAUGGUCCCAGCCUGCUCGCUGGCGCCGGCUGGGCAACAUCCCGAGGGGACCGUCCCCUCGGUAAUGGCGAAUGGGACCCA,0
8,GGCCGGCAUGGUCCCAGCCUCCUCGCUGGCGCCGGCUGGGCAAAAUUCCGAGGGGACCGUCCCCUCGGUAAUAGCGAAUGGGACCCA,0.577
9,GGCCGGCAUGGUCCCAUCCUCCUCGCUGGCGCCGGCUGGGCAACAUUCCGAGGGGACCGUCCCCUAGGUAAUGGCGAAUGGGACCCA,0.684
10,GGCCGACAUGGUCGCAGCCUCCUCGCUGGCGCCGGCUGGGCAACAUUCCGAGGGGACCGUCCCCUCGGUAAUGGCGAAUGGGACCCA,0.287
11,GGCCGGCAUGGUCCCAGCCUCCACGCUGGCGCCGGCUGGGCAACAUUCCGGGGGGACCGUCCCCUCGGUAAUGGCGAAUGGGACCCA,1.01
12,GGCCGGCAUGGUCCCAGCCUCCUCGCUGGCGCCCGCUGGGCAACAUUCCGAGGGGACCGUCCCCUCGGUAAUAGCGAAUGGGACCCA,0.106
13,GGCCGGCAUGGUCCGAGCCUCCUCGCUGGCGCCGGCUGGGCAACAUUCCGAGGGGACCGUCCCCCCGGUAAUGGCGAAUGGGACCCA,0.332
14,GGCCGGCAUGGUCCCAGCCUCCUCGCUGGCGCCGGUUGGGCAACAUUCCGAGGGGACCGUCCCCUCGGUAAUGGCGAAUGGGACCCC,0.778
15,GGCCGGCAUGGUCCCAGCCUCCUCGCUGGCGCCGGCUGGGCAACAUUCCGAGGGGACCGUCCCCUCGGUAAUGGCAAAUAGGACCCA,0.585
16,GGCCGGGAUGGUCCCAGCCUCCUCGCUGACGCCGGCUGGGCAACAUUCCGAGGGGACCGUCCCCUCGGUAAUGGCGAAUGGGACCCA,0
17,GGCCGGCAUGGUCCCAGCCUCCUCGCUGGCUCCGGCUGGGCAACAUUCCGAGGGGACCGUCCCUUCGGUAAUGGCGAAUGGGACCCA,0.475
18,GGCCGGCAUGGUCCCAGCCUCCUCGCUGGCGCCGGCUGGGCAACAUUCCGAGGGGACCGUCCCCUCGUUAAUGGCGAAUGGUACCCA,0.265
19,GGCCGGCAUGGUCCCAGCCUCCUCGCUGGCGCCGGCUGGGCAACAUUCCGAGGGGACCAUCCCCUCGGUAAUGGCGAAUGGGACGCA,1.13
20,GGCCGGCAAGGUCCCAGCCUCCUCGCUGGCGCCGGCUGGGCAACAUUCCGAGGUGACCGUCCCCUCGGUAAUGGCGAAUGGGACCCA,1.06
